Measurements as given in patent US20210396758A1 (AMLO BIOSCIENCES, published 2021).
Ends that are not written are not given here.

Experiments:
[1] = target: T1, N1-CD33-His6 (the ectodomain of human CD33 fused to the N1 domain of the g3p filamentous phage M13) (filamentous phage M13; human, UniProt P20138 18-259); test: QC ELISA of the chimeric human/mouse IgG1 antibody on immobilized control protein; signal over background
T1 construct: extracellular domain; not shown: N1 domain of g3p of filamentous phage M13

[2] = target: T1, N1-CD33-His6 (the ectodomain of human …); test: QC ELISA, purified Fab on immobilized control protein; signal (x-fold) over background
human Ambra-1 = target: T2, human Ambra-1 (human, UniProt Q9C0C7 1-1298); test: automated immunohistochemistry (Ventana Benchmark XT), chimeric mouse IgG1 format
T2 construct: the protein stood in tissue sections (immunohistochemistry)
T2 sequence: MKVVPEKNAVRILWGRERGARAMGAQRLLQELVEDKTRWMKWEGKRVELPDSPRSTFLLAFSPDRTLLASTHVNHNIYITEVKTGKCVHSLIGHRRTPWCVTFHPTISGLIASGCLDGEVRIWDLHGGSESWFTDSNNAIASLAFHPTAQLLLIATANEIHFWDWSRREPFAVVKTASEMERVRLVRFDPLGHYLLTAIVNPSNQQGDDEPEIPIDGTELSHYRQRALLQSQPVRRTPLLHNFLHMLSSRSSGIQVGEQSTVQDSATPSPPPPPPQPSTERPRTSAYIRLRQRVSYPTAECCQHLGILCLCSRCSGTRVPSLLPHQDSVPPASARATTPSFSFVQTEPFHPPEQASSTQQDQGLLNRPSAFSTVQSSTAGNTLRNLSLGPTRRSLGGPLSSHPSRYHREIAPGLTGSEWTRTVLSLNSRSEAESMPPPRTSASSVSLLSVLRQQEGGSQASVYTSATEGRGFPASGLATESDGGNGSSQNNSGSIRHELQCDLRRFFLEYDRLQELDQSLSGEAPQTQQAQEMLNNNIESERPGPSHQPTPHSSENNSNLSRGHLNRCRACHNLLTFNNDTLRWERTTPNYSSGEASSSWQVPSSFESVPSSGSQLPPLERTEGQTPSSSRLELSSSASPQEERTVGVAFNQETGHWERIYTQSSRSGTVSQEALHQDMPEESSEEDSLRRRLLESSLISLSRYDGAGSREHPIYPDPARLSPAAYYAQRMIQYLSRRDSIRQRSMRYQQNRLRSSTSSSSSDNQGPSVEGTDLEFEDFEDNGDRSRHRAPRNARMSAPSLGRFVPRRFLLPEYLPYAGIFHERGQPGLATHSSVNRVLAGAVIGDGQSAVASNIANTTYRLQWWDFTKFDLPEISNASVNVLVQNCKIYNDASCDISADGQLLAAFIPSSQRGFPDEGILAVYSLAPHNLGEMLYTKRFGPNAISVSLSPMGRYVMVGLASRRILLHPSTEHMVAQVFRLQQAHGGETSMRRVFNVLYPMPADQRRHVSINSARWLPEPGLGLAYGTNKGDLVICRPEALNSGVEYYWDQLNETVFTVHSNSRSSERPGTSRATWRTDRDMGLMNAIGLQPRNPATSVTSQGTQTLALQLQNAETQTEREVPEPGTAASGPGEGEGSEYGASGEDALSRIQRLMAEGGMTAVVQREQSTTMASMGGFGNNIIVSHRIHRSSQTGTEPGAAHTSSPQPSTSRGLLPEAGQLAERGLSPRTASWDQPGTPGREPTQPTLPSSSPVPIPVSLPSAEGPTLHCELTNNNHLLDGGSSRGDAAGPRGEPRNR

[3] = target: T3, Ambra-1 peptide (synthesized peptide to which anti-Ambra-1 antibodies were raised) (human, not fully specified); test: QC ELISA of the chimeric human/mouse IgG1 antibody on immobilized Ambra-1 peptide conjugates Amb1-TRF and Amb1-BSA; signal over background
T3 construct: Tested in ELISA in native and denatured form; also called Ambra-1 antigen
T3 peptide: CGGSSRGDAAGPRGEPRNR

[4] = target: T1, N1-CD33-His6 (the ectodomain of human …); test: QC ELISA of the chimeric human/mouse IgG1 antibody on immobilized control protein; signal over background; remark: listed apart in the source

T1 sequence (P20138 18-259, tags left off): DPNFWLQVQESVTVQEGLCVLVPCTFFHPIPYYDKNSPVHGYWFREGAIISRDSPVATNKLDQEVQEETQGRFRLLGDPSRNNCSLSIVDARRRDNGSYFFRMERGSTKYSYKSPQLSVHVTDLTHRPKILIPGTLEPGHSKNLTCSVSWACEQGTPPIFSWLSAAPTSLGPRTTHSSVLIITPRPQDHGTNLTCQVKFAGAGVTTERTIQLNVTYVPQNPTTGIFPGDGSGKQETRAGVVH

B1: AbD33047 full length chimeric antibody against human Loricrin with an IgG1 mouse Fc region (antibody, V domains shown)
VH: QVQLVQSGAEVKKPGASVKVSCKASGYTFNDYYIHWVRQAPGQGLEWMGVISPNSGKTNYAQKFQGRVTMTRDTSISTAYMELSRLRSEDTAVYYCARDLYPDSSAFDIWGQGTLVTVSS
VL: DIELTQPPSVSVSPGQTASITCSGDNLGDKYAHWYQQKPGQAPVLVIYDDNERPSGIPERFSGSNSGNTATLTISGTQAEDEADYYCQSYDSGNRVFGGGTKLTVLG
notes: also called recombinant monoclonal antibody AbD33047; HuCAL antibody AbD33047
[1]
  binding result: no binding

B2: HuCAL recombinant monoclonal antibody fragment against human Ambra-1, AbD33473.1, bivalent Fab (Fab-A-FH) (Fab)
heavy: EVQLVQSGAEVKKPGESLKISCKGSGYSFSSYWIHWVRQMPGKGLEWMGTIFPSRSYTTYSPSFQGQVTISADKSISTAYLQWSSLKASDTAMYYCARDTPSTALKSPFDYWGQGTLVTVSSASTKGPSVFPLAPSSKSTSGGTAALGCLVKDYFPEPVTVSWNSGALTSGVHTFPAVLQSSGLYSLSSVVTVPSSSLGTQTYICNVNHKPSNTKVDKKVEPKSRTPEMPVLENRAAQGDITAPGGARRLTGDQTAALRDSLSDKPAKNIILLIGDGMGDSEITAARNYAEGAGGFFKGIDALPLTGQYTHYALNKKTGKPDYVTDSAASATAWSTGVKTYNGALGVDIHEKDHPTILEMAKAAGLATGNVSTAELQDATPAALVAHVTSRKCYGPSATSEKCPGNALEKGGKGSITEQLLNARADVTLGGGAKTFAETATAGEWQGKTLREQAQARGYQLVSDAASLNSVTEANQQKPLLGLFADGNMPVRWLGPKATYHGNIDKPAVTCTPNPQRNDSVPTLAQMTDKAIELLSKNEKGFFLQVEGASIDKQDHAANPCGQIGETVDLDEAVQRALEFAKKEGNTLVIVTADHAHASQIVAPDTKAPGLTQALNTKDGAVMVMSYGNSEEDSQEHTGSQLRIAAYGPHAANVVGLTDQTDLFYTMKAALGLKDYKDDDDKHHHHHH
light: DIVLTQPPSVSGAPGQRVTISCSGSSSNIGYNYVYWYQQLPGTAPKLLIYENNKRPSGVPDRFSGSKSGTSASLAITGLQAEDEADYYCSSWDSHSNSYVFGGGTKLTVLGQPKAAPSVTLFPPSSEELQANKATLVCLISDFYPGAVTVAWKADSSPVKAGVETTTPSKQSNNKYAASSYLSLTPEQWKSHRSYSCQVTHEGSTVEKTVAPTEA
notes: domain: alkaline phosphatase dimerization domain
[2]
  binding result: no binding

B3: AbD33473 full length chimeric antibody against human Ambra-1 with an IgG1 mouse Fc region (antibody, V domains shown)
VH: EVQLVQSGAEVKKPGESLKISCKGSGYSFSSYWIHWVRQMPGKGLEWMGTIFPSRSYTTYSPSFQGQVTISADKSISTAYLQWSSLKASDTAMYYCARDTPSTALKSPFDYWGQGTLVTVSS
VL: DIVLTQPPSVSGAPGQRVTISCSGSSSNIGYNYVYWYQQLPGTAPKLLIYENNKRPSGVPDRFSGSKSGTSASLAITGLQAEDEADYYCSSWDSHSNSYVFGGGTKLTVLG
notes: also called recombinant monoclonal antibody AbD33473; HuCAL antibody AbD33473
Human Ambra-1
  binding result: binds
[3]
  binding result: binds
[4]
  binding result: no binding
